Measurements taken from patent US20080199426A1 (BETH ISRAEL DEACONESS MEDICAL CENTER, published 2008).

B1: SH2 domain of Crkl (other, UniProt P46109 14-102, looked up)
chain: WYMGPVSRQEAQTRLQGQRHGMFLVRDSSTCPGDYVLSVSENSRVSHYIINSLPNRRFKIGDQEFDHLPALLEFYKIHYLDTTTLIEPA
notes: domain: SH2 domain; also called Crk1
B2: SH2 domain of Grb14 (other, UniProt Q14449 439-535, looked up)
chain: WFHHKISRDEAQRLIIQQGLVDGVFLVRDSQSNPKTFVLSMSHGQKIKHFQIIPVEDDGEMFHTLDDGHTRFTDLIQLVEFYQLNKGVLPCKLKHYC
notes: domain: SH2 domain
B3: SH2 domain of RaLP (other, UniProt Q6S5L8 526-617, looked up)
chain: CYHGKLSRKAAESLLVKDGDFLVRESATSPGQYVLSGLQGGQAKHLLLVDPEGKVRTKDHVFDNVGHLIRYHMDNSLPIISSGSEVSLKQPV
notes: domain: SH2 domain
B4: SH2 domain of Btk (other, UniProt Q06187 281-377, looked up)
chain: WYSKHMTRSQAEQLLKQEGKEGGFIVRDSSKAGKYTVSVFAKSTGDPQGVIRHYVVCSTPQSQYYLAEKHLFSTIPELINYHQHNSAGLISRLKYPV
notes: domain: SH2 domain
B5: SH2 domain of Nck2 (other, UniProt O43639 285-380, looked up)
chain: WYYGNVTRHQAECALNERGVEGDFLIRDSESSPSDFSVSLKASGKNKHFKVQLVDNVYCIGQRRFHTMDELVEHYKKAPIFTSEHGEKLYLVRALQ
notes: domain: SH2 domain
B6: SH2 domain of Csk (other, UniProt P41240 82-171, looked up)
chain: WFHGKITREQAERLLYPPETGLFLVRESTNYPGDYTLCVSCDGKVEHYRIMYHASKLSIDEEVYFENLMQLVEHYTSDADGLCTRLIKPK
notes: domain: SH2 domain
B7: SH2 domain of Fes (other, UniProt P07332 460-549, looked up)
chain: WYHGAIPRAEVAELLVHSGDFLVRESQGKQEYVLSVLWDGLPRHFIIQSLDNLYRLEGEGFPSIPLLIDHLLSTQQPLTKKSGVVLHRAV
notes: domain: SH2 domain
B8: SH2 domain of Brdg1 (other, UniProt Q9ULZ2 177-280, looked up)
chain: ACFYTVSRKEATEMLQKNPSLGNMILRPGSDSRNYSITIRQEIDIPRIKHYKVMSVGQNYTIELEKPVTLPNLFSVIDYFVKETRGNLRPFICSTDENTGQEPS
notes: domain: SH2 domain
B9: SH2 domain of Stap2 (other, UniProt Q9UGK3 133-248, looked up)
chain: YMMSEVLAKEEARRALETPSCFLKVSRLEAQLLLERYPECGNLLLRPSGDGADGVSVTTRQMHNGTHVVRHYKVKREGPKYVIDVEQPFSCTSLDAVVNYFVSHTKKALVPFLLDE
notes: domain: SH2 domain
B10: SH2 domain of Lck (other, UniProt P06239 127-224, looked up)
chain: WFFKNLSRKDAERQLLAPGNTHGSFLIRESESTAGSFSLSVRDFDQNQGEVVKHYKIRNLDNGGFYISPRITFPGLHELVRHYTNASDGLCTRLSRPC
notes: domain: SH2 domain
B11: SH2 domain of Fyn (other, UniProt P06241 149-246, looked up)
chain: WYFGKLGRKDAERQLLSFGNPRGTFLIRESETTKGAYSLSIRDWDDMKGDHVKHYKIRKLDNGGYYITTRAQFETLQQLVQHYSERAAGLCCRLVVPC
notes: domain: SH2 domain
B12: SH2 domain of SHC2 (other, UniProt P98077 487-578, looked up)
chain: WYHGRMSRRAAERMLRADGDFLVRDSVTNPGQYVLTGMHAGQPKHLLLVDPEGVVRTKDVLFESISHLIDHHLQNGQPIVAAESELHLRGVV
notes: domain: SH2 domain
B13: SH2 domain of Nck1 (other, UniProt P16333 282-376, looked up)
chain: WYYGKVTRHQAEMALNERGHEGDFLIRDSESSPNDFSVSLKAQGKNKHFKVQLKETVYCIGQRKFSTMEELVEHYKKAPIFTSEQGEKLYLVKHL
notes: domain: SH2 domain
B14: SH2 domain of Abl1 (other, UniProt P00519 127-217, looked up)
chain: WYHGPVSRNAAEYLLSSGINGSFLVRESESSPGQRSISLRYEGRVYHYRINTASDGKLYVSSESRFNTLAELVHHHSTVADGLITTLHYPA
notes: domain: SH2 domain
B15: SH2 domain of TNS (other, UniProt Q9HBL0 1567-1676, looked up)
chain: WYKPEISREQAIALLKDQEPGAFIIRDSHSFRGAYGLAMKVSSPPPTIMQQNKKGDMTHELVRHFLIETGPRGVKLKGCPNEPNFGSLSALVYQHSIIPLALPCKLVIPN
notes: domain: SH2 domain
B16: SH2 domain of Hck (other, UniProt P08631 144-241, looked up)
chain: WFFKGISRKDAERQLLAPGNMLGSFMIRDSETTKGSYSLSVRDYDPRQGDTVKHYKIRTLDNGGFYISPRSTFSTLQELVDHYKKGNDGLCQKLSVPC
notes: domain: SH2 domain
B17: SH2 domain of SHC3 (other, UniProt Q92529 499-590, looked up)
chain: WYQGEMSRKEAEGLLEKDGDFLVRKSTTNPGSFVLTGMHNGQAKHLLLVDPEGTIRTKDRVFDSISHLINHHLESSLPIVSAGSELCLQQPV
notes: domain: SH2 domain
B18: SH2 domain of Matk (other, UniProt P42679 122-211, looked up)
chain: WFHGKISGQEAVQQLQPPEDGLFLVRESARHPGDYVLCVSFGRDVIHYRVLHRDGHLTIDEAVFFCNLMDMVEHYSKDKGAICTKLVRPK
notes: domain: SH2 domain
B19: SH2 domain of Eat2 (other, UniProt O14796 5-101, looked up)
chain: YYHGRLTKQDCETLLLKEGVDGNFLLRDSESIPGVLCLCVSFKNIVYTYRIFREKHGYYRIQTAEGSPKQVFPSLKELISKFEKPNQGMVVHLLKPI
notes: domain: SH2 domain
B20: SH2 domain of Grap (other, UniProt Q13588 60-154, looked up)
chain: WYSGRISRQLAEEILMKRNHLGAFLIRESESSPGEFSVSVNYGDQVQHFKVLREASGKYFLWEEKFNSLNELVDFYRTTTIAKKRQIFLRDEEPL
notes: domain: SH2 domain
B21: SH2 domain of Yes (other, UniProt P07947 158-255, looked up)
chain: WYFGKMGRKDAERLLLNPGNQRGIFLVRESETTKGAYSLSIRDWDEIRGDNVKHYKIRKLDNGGYYITTRAQFDTLQKLVKHYTEHADGLCHKLTTVC
notes: domain: SH2 domain
B22: SH2 domain of SHC1 (other, UniProt P29353 488-579, looked up)
chain: WFHGKLSRREAEALLQLNGDFLVRESTTTPGQYVLTGLQSGQPKHLLLVDPEGVVRTKDHRFESVSHLISYHMDNHLPIISAGSELCLQQPV
notes: domain: SH2 domain
B23: SH2 domain of Lyn (other, UniProt P07948 129-226, looked up)
chain: WFFKDITRKDAERQLLAPGNSAGAFLIRESETLKGSFSLSVRDFDPVHGDVIKHYKIRSLDNGGYYISPRITFPCISDMIKHYQKQADGLCRRLEKAC
notes: domain: SH2 domain
B24: SH2 domain of Fgr (other, UniProt P09769 144-241, looked up)
chain: WYFGKIGRKDAERQLLSPGNPQGAFLIRESETTKGAYSLSIRDWDQTRGDHVKHYKIRKLDMGGYYITTRVQFNSVQELVQHYMEVNDGLCNLLIAPC
notes: domain: SH2 domain

biological target: T1, thrombin-activated EphA2 (endogenous, from lysate of HUVECs stimulated with 1 U/ml thrombin for 5 mins) (human, UniProt P29317 24-976, tyrosine phosphorylated after thrombin stimulation (sites not given)); assay: SH2 domain array with thrombin-stimulated HUVEC lysate, anti-human EphA2 detection
T1 construct: Endogenous EphA2 in a HUVEC lysate, detected on the array with a biotinylated anti-human EphA2 antibody; No signal peptide limits are stated
T1 sequence (P29317 24-976 limits assumed): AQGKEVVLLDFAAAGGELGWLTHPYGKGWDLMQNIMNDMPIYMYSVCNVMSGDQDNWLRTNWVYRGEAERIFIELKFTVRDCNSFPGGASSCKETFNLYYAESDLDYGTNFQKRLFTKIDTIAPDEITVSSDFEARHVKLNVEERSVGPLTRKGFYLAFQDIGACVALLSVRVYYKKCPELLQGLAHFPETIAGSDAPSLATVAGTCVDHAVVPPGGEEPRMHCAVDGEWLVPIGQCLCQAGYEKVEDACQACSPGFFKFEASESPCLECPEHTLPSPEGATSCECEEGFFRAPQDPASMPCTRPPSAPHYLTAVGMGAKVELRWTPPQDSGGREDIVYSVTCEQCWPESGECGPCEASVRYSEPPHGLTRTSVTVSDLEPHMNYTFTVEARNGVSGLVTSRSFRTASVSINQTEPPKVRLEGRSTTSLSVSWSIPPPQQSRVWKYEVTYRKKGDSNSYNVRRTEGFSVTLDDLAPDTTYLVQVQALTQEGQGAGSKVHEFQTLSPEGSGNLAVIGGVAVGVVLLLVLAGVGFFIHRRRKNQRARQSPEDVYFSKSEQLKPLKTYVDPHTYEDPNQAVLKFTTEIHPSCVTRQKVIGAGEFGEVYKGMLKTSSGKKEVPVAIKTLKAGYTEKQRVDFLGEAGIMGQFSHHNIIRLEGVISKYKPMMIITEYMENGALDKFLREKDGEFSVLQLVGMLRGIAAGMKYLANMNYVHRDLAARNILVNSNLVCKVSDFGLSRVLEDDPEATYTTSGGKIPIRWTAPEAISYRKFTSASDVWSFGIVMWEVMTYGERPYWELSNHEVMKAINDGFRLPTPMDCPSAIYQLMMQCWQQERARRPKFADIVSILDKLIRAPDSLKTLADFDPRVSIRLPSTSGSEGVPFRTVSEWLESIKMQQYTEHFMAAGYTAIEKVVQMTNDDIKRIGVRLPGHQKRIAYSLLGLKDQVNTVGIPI
Description: (§1) Methods: We used a phosphotyrosine profiling array to identify signaling pathways linked to EphA2 activation by thrombin. HUVECs were prepared and stimulated with 1 U/ml thrombin for 5 mins. TranSignal Phosphotyrosine Profiling Array (Panomics) was used according to the manufacturer's protocol, except that a biotinylated anti-human EphA2 (R & D) was used as the detection antibody.
(§2) Results: Confluent HUVECs were stimulated with thrombin for 5 mins to induce EphA2 phosphorylation. This stimulated lysate and an unstimulated lysate were used in the antibody array experiment. The concept of this array is similar to a far-western blot. On this array, the SH2 domains of 38 signaling molecules were spotted in duplicate. Upon incubation with a lysate, each of these SH2 domains will bind to its specific, tyrosine phosphorylated protein targets. When an anti-human EphA2 antibody was used for detection, any SH2 domains that are bound to EphA2 will appear as two dots in a specific location of the membrane. Therefore, pathways activated post EphA2 phosphorylation can be identified.

Q: Does B1 bind?
A: binds

biological target: T1, thrombin-activated EphA2 (endogenous, …); assay: SH2 domain array with thrombin-stimulated HUVEC lysate, anti-EphA2 detection
Description: as §1, §2

Q: Does B2 bind?
A: no binding

Q: Does B3 bind?
A: no binding

Q: Does B4 bind?
A: no binding

Q: Does B5 bind?
A: no binding

Q: Does B6 bind?
A: no binding

Q: Does B7 bind?
A: no binding

Q: Does B8 bind?
A: no binding

Q: Does B9 bind?
A: no binding

Q: Does B10 bind?
A: no binding

Q: Does B11 bind?
A: no binding

Q: Does B12 bind?
A: no binding

Q: Does B13 bind?
A: no binding

Q: Does B14 bind?
A: no binding

Q: Does B15 bind?
A: no binding

Q: Does B16 bind?
A: no binding

Q: Does B17 bind?
A: no binding

Q: Does B18 bind?
A: no binding

Q: Does B19 bind?
A: no binding

Q: Does B20 bind?
A: no binding

Q: Does B21 bind?
A: no binding

Q: Does B22 bind?
A: no binding

Q: Does B23 bind?
A: no binding

Q: Does B24 bind?
A: no binding
